Measurements published in patent publication US20200199241A1 (Chugai, published 2020).
Substitutions are numbered along the chain they refer to. Names and notes keep the numbering of the source.

B1: GpH7-B3 variant D265K/GpL16-k0 (antibody, human IgG1)
heavy: not shown
light: DIVMTQSPLSLPVTPGEPASISCQASESLVHSNRNTYLHWYLQKPGQSPQLLIYKVSNRFSGVPDRFSGSGSGTDFTLKISRVEAEDVGVYYCSQNTHVPPTFGQGTKVEIE
notes: copies: 2 + 2
B2: GpH7-B3 variant E269W/GpL16-k0 (antibody, human IgG1)
heavy: not shown
light: B1 light
notes: copies: 2 + 2
B3: GpH7-B3 variant S239R/GpL16-k0 (antibody, human IgG1)
heavy: not shown
light: B1 light
notes: copies: 2 + 2
B4: GpH7-B3 variant D265L/GpL16-k0 (antibody, human IgG1)
heavy: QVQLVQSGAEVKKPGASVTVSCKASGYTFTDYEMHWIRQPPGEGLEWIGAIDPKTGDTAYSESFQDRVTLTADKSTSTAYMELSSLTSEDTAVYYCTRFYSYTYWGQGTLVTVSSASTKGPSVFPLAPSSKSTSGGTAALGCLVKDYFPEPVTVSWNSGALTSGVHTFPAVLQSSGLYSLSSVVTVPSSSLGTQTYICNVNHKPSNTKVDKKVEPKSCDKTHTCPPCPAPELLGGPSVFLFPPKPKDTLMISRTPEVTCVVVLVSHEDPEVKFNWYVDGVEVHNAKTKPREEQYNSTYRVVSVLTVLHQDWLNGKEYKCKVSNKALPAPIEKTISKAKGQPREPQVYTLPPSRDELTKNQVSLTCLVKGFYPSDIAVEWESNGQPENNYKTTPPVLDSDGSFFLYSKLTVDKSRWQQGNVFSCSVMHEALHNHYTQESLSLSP
light: B1 light
notes: copies: 2 + 2
B5: GpH7-B3 variant L234G/GpL16-k0 (antibody, human IgG1)
heavy: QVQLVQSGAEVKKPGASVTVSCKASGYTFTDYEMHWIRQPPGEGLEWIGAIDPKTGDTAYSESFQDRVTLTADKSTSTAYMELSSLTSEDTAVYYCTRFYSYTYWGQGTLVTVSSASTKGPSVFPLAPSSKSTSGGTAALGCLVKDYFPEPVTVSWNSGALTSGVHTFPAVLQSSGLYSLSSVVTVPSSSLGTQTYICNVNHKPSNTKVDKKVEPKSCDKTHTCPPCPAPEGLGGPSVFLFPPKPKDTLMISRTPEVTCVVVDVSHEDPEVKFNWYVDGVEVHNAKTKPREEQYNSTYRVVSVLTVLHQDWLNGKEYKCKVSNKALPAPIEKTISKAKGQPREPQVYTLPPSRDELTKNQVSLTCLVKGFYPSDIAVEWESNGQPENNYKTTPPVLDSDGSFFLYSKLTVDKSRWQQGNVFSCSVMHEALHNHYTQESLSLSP
light: B1 light
notes: copies: 2 + 2
B6: GpH7-B3 variant D265F/GpL16-k0 (antibody, human IgG1)
heavy: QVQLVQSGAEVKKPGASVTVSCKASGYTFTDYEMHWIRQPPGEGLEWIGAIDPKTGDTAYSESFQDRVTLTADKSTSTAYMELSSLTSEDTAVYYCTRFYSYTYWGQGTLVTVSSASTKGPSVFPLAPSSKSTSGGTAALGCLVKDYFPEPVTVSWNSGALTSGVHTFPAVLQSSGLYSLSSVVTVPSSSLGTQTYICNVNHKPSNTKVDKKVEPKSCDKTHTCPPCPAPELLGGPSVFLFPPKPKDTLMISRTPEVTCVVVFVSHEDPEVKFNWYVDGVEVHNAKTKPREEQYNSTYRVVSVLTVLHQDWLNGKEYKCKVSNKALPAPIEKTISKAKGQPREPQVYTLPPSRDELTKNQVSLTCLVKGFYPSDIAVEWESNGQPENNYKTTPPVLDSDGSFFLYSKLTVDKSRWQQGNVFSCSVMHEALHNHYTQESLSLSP
light: B1 light
notes: copies: 2 + 2
B7: GpH7-B3 variant E269H/GpL16-k0 (antibody, human IgG1)
heavy: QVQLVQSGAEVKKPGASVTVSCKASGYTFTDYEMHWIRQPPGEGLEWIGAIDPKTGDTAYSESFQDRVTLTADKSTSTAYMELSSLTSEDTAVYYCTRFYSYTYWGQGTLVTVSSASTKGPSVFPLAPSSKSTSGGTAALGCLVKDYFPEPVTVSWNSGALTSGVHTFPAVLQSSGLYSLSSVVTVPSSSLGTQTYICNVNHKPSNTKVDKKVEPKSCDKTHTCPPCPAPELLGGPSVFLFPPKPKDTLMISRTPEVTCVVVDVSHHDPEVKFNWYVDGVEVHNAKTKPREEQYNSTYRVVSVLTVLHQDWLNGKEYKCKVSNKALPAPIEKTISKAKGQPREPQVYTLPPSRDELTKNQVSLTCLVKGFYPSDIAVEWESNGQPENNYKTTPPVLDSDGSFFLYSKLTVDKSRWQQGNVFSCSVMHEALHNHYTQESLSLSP
light: B1 light
notes: copies: 2 + 2
B8: GpH7-B3 variant D265M/GpL16-k0 (antibody, human IgG1)
heavy: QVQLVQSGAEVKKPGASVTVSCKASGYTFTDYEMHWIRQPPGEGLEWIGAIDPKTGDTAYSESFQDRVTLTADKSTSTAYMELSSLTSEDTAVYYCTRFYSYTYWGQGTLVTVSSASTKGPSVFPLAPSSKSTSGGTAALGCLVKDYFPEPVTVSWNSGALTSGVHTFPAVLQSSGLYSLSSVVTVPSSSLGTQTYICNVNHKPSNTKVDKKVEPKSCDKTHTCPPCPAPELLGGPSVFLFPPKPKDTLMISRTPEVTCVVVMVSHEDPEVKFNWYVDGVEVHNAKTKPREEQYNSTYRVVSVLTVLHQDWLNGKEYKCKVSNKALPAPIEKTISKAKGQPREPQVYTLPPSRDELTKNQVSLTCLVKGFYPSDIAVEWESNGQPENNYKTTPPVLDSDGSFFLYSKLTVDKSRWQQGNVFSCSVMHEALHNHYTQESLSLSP
light: B1 light
notes: copies: 2 + 2
B9: GpH7-B3 variant D265I/GpL16-k0 (antibody, human IgG1)
heavy: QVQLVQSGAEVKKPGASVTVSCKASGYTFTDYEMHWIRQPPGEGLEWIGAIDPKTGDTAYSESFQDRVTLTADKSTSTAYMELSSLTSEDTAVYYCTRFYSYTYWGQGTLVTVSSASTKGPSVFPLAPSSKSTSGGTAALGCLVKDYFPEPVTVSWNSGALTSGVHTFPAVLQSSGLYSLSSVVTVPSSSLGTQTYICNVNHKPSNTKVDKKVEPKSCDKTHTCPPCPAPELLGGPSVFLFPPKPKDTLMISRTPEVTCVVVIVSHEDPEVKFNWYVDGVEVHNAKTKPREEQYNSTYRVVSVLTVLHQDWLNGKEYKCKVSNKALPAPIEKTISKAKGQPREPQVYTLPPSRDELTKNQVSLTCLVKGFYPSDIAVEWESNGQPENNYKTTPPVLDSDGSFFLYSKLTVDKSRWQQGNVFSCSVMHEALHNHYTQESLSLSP
light: B1 light
notes: copies: 2 + 2
B10: GpH7-B3 variant D265H/GpL16-k0 (antibody, human IgG1)
heavy: not shown
light: B1 light
notes: copies: 2 + 2
B11: GpH7-B3 variant G237Y/GpL16-k0 (antibody, human IgG1)
heavy: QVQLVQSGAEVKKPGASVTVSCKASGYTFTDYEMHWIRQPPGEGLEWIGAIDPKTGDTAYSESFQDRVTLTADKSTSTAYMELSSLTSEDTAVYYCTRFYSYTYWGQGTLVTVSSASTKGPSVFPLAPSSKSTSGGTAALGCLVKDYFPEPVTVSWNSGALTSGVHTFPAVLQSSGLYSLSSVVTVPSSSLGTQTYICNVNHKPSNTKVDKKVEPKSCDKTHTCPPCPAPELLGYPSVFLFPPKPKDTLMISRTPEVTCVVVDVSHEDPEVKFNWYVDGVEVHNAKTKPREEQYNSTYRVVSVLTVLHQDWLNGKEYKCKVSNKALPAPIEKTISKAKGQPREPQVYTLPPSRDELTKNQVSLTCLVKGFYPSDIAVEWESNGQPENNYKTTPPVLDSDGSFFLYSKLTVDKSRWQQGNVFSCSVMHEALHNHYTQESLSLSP
light: B1 light
notes: copies: 2 + 2
B12: GpH7-B3 variant G237P/GpL16-k0 (antibody, human IgG1)
heavy: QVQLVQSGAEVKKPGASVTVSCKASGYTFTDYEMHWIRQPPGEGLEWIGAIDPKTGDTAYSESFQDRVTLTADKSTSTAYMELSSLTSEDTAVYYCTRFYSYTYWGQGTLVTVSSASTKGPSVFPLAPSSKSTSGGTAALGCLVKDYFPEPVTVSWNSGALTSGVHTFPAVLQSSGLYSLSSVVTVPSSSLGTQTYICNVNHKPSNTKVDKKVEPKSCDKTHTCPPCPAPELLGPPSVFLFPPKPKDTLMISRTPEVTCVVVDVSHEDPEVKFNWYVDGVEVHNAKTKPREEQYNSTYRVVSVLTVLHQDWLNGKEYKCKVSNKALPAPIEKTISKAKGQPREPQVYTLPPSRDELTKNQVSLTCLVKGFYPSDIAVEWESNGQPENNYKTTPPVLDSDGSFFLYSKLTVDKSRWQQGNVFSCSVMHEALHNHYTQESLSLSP
light: B1 light
notes: copies: 2 + 2
B13: GpH7-B3 variant D265G/GpL16-k0 (antibody, human IgG1)
heavy: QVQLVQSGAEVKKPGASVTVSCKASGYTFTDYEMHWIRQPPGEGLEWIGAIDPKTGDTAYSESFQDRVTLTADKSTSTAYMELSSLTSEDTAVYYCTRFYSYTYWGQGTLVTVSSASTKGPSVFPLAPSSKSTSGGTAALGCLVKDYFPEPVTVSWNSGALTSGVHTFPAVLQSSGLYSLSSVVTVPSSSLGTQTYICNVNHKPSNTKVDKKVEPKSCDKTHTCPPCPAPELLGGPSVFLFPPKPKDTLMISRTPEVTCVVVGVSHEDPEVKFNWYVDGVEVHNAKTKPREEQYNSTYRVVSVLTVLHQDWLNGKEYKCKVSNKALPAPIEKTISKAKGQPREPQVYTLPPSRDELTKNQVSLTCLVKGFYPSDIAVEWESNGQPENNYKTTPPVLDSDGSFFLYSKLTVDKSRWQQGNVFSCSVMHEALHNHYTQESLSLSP
light: B1 light
notes: copies: 2 + 2
B14: GpH7-B3 variant D265A/GpL16-k0 (antibody, human IgG1)
heavy: not shown
light: B1 light
notes: copies: 2 + 2
B15: GpH7-B3 variant S239W/GpL16-k0 (antibody, human IgG1)
heavy: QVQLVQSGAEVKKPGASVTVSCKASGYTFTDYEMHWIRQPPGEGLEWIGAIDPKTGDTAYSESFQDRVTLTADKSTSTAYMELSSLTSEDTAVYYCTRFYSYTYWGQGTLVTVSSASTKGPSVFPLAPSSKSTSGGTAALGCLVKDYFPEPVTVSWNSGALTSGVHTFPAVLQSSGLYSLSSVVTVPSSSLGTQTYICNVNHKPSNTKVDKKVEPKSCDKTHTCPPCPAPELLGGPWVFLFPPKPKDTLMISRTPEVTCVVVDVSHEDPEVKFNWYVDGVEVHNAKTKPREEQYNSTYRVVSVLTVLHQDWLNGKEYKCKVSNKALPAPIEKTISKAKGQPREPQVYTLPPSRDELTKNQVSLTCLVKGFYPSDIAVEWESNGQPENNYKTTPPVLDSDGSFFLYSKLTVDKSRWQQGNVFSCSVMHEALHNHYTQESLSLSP
light: B1 light
notes: copies: 2 + 2
B16: GpH7-B3 variant G237A/GpL16-k0 (antibody, human IgG1)
heavy: not shown
light: B1 light
notes: copies: 2 + 2
B17: GpH7-B3 variant V266F/GpL16-k0 (antibody, human IgG1)
heavy: not shown
light: B1 light
notes: copies: 2 + 2

Molecular target: T1, human FcγRIIa(H) (human, UniProt P12318 36-217)
T1 construct: also called FcgRIIaH; FcγRIIa type H
T1 sequence: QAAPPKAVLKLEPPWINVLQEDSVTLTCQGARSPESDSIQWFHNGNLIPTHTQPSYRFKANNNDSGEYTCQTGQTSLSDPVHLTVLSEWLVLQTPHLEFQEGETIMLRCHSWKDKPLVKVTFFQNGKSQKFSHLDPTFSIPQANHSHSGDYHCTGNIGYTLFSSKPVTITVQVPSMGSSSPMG
Test: SPR (Biacore);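 also: antibody variants captured on sensor chip, Fcγ receptor flowed over at 25 °C, bound receptor normalized to amount of captured antibody, expressed relative to reference antibody set as 100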

Binder | relative binding activity
B1 | 0 % of GpH7-B3/GpL16-k0
B2 | 30 % of GpH7-B3/GpL16-k0
B3 | 13 % of GpH7-B3/GpL16-k0
B4 | 0 % of GpH7-B3/GpL16-k0
B5 | 11 % of GpH7-B3/GpL16-k0
B6 | 0 % of GpH7-B3/GpL16-k0
B7 | 24 % of GpH7-B3/GpL16-k0
B8 | 0 % of GpH7-B3/GpL16-k0
B9 | 0 % of GpH7-B3/GpL16-k0
B10 | 18 % of GpH7-B3/GpL16-k0
B11 | 4 % of GpH7-B3/GpL16-k0
B12 | 0 % of GpH7-B3/GpL16-k0
B13 | 1 % of GpH7-B3/GpL16-k0
B14 | 5 % of GpH7-B3/GpL16-k0

Molecular target: T2, human FcγRIIb (human, UniProt P31994 43-217, limits assumed)
T2 construct: also called FcgRIIb
T2 sequence: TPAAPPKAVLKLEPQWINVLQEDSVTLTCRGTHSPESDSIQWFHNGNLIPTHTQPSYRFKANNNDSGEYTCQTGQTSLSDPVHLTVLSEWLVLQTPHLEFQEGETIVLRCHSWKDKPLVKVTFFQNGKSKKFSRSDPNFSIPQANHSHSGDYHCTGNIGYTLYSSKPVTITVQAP
Test: SPR (Biacore);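 also: antibody variants captured on sensor chip, Fcγ receptor flowed over at 25 °C, bound receptor normalized to amount of captured antibody, expressed relative to reference antibody set as 100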

Binder | relative binding activity
B1 | 0 % of GpH7-B3/GpL16-k0
B2 | 13 % of GpH7-B3/GpL16-k0
B3 | 5 % of GpH7-B3/GpL16-k0
B15 | 17 % of GpH7-B3/GpL16-k0
B4 | 0 % of GpH7-B3/GpL16-k0
B16 | 49 % of GpH7-B3/GpL16-k0
B5 | 10 % of GpH7-B3/GpL16-k0
B6 | -2 % of GpH7-B3/GpL16-k0
B8 | -2 % of GpH7-B3/GpL16-k0
B9 | -2 % of GpH7-B3/GpL16-k0
B10 | 11 % of GpH7-B3/GpL16-k0
B17 | 88 % of GpH7-B3/GpL16-k0
B12 | 5 % of GpH7-B3/GpL16-k0
B13 | -1 % of GpH7-B3/GpL16-k0
B14 | 1 % of GpH7-B3/GpL16-k0

Molecular target: T3, human FcγRIIIa(F) (human, UniProt P08637 17-208, limits assumed)
T3 construct: also called FcgRIIIaF; allotype F158
Test: SPR (Biacore);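 also: antibody variants captured on sensor chip, Fcγ receptor flowed over at 25 °C, bound receptor normalized to amount of captured antibody, expressed relative to reference antibody set as 100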

T3 sequence (P08637 other isoform, or with tags, fused parts or gaps limits assumed): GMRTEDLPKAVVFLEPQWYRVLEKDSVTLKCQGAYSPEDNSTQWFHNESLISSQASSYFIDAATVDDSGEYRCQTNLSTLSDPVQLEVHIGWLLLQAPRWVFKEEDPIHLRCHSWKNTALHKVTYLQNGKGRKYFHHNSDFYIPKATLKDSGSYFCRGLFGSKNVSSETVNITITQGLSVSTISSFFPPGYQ

Binder | relative binding activity
B1 | -2 % of GpH7-B3/GpL16-k0
B3 | 1 % of GpH7-B3/GpL16-k0
B15 | 19 % of GpH7-B3/GpL16-k0
B4 | -1 % of GpH7-B3/GpL16-k0
B16 | 4 % of GpH7-B3/GpL16-k0
B5 | 11 % of GpH7-B3/GpL16-k0
B6 | -2 % of GpH7-B3/GpL16-k0
B7 | 12 % of GpH7-B3/GpL16-k0
B8 | -1 % of GpH7-B3/GpL16-k0
B9 | -1 % of GpH7-B3/GpL16-k0
B10 | 0 % of GpH7-B3/GpL16-k0
B11 | 0 % of GpH7-B3/GpL16-k0
B17 | 2 % of GpH7-B3/GpL16-k0
B12 | 0 % of GpH7-B3/GpL16-k0
B13 | -1 % of GpH7-B3/GpL16-k0
B14 | -1 % of GpH7-B3/GpL16-k0

Molecular target: T4, human FcγRIIa(R) (human, UniProt P12318 36-217)
T4 construct: also called FcgRIIaR; FcγRIIa type R
T4 chain: T1 sequence with H133R
Test: SPR (Biacore);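 also: antibody variants captured on sensor chip, Fcγ receptor flowed over at 25 °C, bound receptor normalized to amount of captured antibody, expressed relative to reference antibody set as 100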

Binder | relative binding activity
B1 | -1 % of GpH7-B3/GpL16-k0
B2 | 21 % of GpH7-B3/GpL16-k0
B15 | 19 % of GpH7-B3/GpL16-k0
B4 | 0 % of GpH7-B3/GpL16-k0
B16 | 85 % of GpH7-B3/GpL16-k0
B6 | -1 % of GpH7-B3/GpL16-k0
B7 | 12 % of GpH7-B3/GpL16-k0
B8 | -1 % of GpH7-B3/GpL16-k0
B9 | -1 % of GpH7-B3/GpL16-k0
B10 | 26 % of GpH7-B3/GpL16-k0
B11 | 77 % of GpH7-B3/GpL16-k0
B13 | 1 % of GpH7-B3/GpL16-k0
B14 | 3 % of GpH7-B3/GpL16-k0

Molecular target: T5, human FcγRIa (human, UniProt P12314 16-292, limits assumed)
T5 construct: also called FcgRIa; FcγRI (CD64)
Test: SPR (Biacore)

T5 sequence (P12314 16-292 limits assumed): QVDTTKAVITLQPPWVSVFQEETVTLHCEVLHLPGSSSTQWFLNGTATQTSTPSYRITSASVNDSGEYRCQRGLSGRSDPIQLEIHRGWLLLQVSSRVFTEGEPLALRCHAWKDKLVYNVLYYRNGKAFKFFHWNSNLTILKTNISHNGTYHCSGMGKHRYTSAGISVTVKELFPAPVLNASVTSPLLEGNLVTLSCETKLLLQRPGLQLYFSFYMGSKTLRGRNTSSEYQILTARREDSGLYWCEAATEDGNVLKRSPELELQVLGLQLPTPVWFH

Binder | relative binding activity
B1 | 8 % of GpH7-B3/GpL16-k0
B2 | 96 % of GpH7-B3/GpL16-k0
B3 | 52 % of GpH7-B3/GpL16-k0
B15 | 69 % of GpH7-B3/GpL16-k0
B4 | 7 % of GpH7-B3/GpL16-k0
B16 | 45 % of GpH7-B3/GpL16-k0
B5 | 28 % of GpH7-B3/GpL16-k0
B6 | 2 % of GpH7-B3/GpL16-k0
B7 | 95 % of GpH7-B3/GpL16-k0
B8 | 17 % of GpH7-B3/GpL16-k0
B9 | 2 % of GpH7-B3/GpL16-k0
B10 | 59 % of GpH7-B3/GpL16-k0
B11 | 7 % of GpH7-B3/GpL16-k0
B17 | 80 % of GpH7-B3/GpL16-k0
B12 | 3 % of GpH7-B3/GpL16-k0
B13 | 11 % of GpH7-B3/GpL16-k0
B14 | 36 % of GpH7-B3/GpL16-k0
